Data set [1] deals with Pseudomonas aeruginosa. Kind of data set: Inhibition of Pseudomonas aeruginosa Metallo-beta-lactamase assessed as decrease in biapenem resistance rate at 32 ug/ml.
In data set [2] the test system is Pseudomonas aeruginosa. Kind of data set: Inhibition of Pseudomonas aeruginosa Metallo-beta-lactamase assessed as increase in biapenem susceptible rate at 32 ug/ml. Set-up: scale not given: the % may be the effect or the level left.
Data set [3] deals with Pseudomonas aeruginosa. The experiment in a line: Inhibition of Pseudomonas aeruginosa Metallo-beta-lactamase assessed as potentiation of piperacillin antimicrobial activity.
Data set [4] concerns Pseudomonas aeruginosa. Kind of data set: Inhibition of Pseudomonas aeruginosa Metallo-beta-lactamase assessed as potentiation of aztreonam antimicrobial activity.
Data set [5] deals with C[C@@H](O)[C@H]1C(=O)N2C(C(=O)O)=C(SCCNC=N)C[C@H]12. Kind of data set: (§1) Activity of Pseudomonas aeruginosa beta-lactamase VIM-2 by UV spectrophotometric analysis.
The test system of data set [6] is C[C@@H](O)[C@H]1C(=O)N2C(C(=O)[O-])=C(SC3Cn4cnc[n+]4C3)[C@H](C)[C@H]12. Described as §1.
Data set [7] deals with C[C@@H](O)[C@H]1C(=O)N2C(C(=O)O)=C(SCCNC=N)C[C@H]12. Kind of data set: (§2) Ratio of Kcat to Km for Pseudomonas aeruginosa beta-lactamaseVIM-2 by UV spectrophotometric analysis.
Data set [8] has as its system C[C@@H](O)[C@H]1C(=O)N2C(C(=O)[O-])=C(SC3Cn4cnc[n+]4C3)[C@H](C)[C@H]12. Described as §2.

This note sets out measurements from ChEMBL document CHEMBL1671717, “In vitro potentiation of carbapenems with ME1071, a novel metallo-beta-lactamase inhibitor, against metallo-beta-lactamase- producing Pseudomonas aeruginosa clinical isolates” (Antimicrob Agents Chemother, 2010).

The source made the active and inactive calls. No cut-off for these calls is given here.

For the molecule `CC/C(C(=O)O)=C(\CC)C(=O)O`, in data set [1], the inhibition amounted to 40%. For the same molecule, the Activity in data set [2] stood at 22%. For the same molecule, the result in data set [3] and in data set [4] was inactive.

Consider “Beta-lactamase VIM-2 (Pseudomonas aeruginosa) (from UniProt Q9K2N0)”, for which the Km in data set [5] is 8.5 µM; in data set [6], 24.7 µM. In addition, the kcat is 98.9 s⁻¹ in data set [5] and 12.4 s⁻¹ in data set [6]. The results for the kcat/Km in data set [7] and in data set [8] were 1.2e+07 M⁻¹ s⁻¹ and 500000 M⁻¹ s⁻¹, respectively.

Usually inhibition stands for the relative decrease from the control value, in per cent. Broadly, the Km is the substrate concentration at which the rate is half of its maximum. As usually defined, the kcat is the number of substrate molecules converted per active site and unit of time at saturation. In general, kcat/Km refers to the second-order rate constant that governs catalysis at low substrate concentration.
